The record followed here is patent publication EP1396498A1, “A pair of polypeptides with specific and strong interaction” (Max-Planck-Gesellschaft zur Förderung der Wissenschaften …, priority 2002, dated 2004).

For experiment [1], the target named is T1, GST-Dsl1p (Saccharomyces cerevisiae, UniProt P53847).
T1 construct: when introduced into full length GST-Dsl1p; made in house; host or cells: E. coli (BL21DE3 or C41DE3)
T1 sequence (P53847 1-754): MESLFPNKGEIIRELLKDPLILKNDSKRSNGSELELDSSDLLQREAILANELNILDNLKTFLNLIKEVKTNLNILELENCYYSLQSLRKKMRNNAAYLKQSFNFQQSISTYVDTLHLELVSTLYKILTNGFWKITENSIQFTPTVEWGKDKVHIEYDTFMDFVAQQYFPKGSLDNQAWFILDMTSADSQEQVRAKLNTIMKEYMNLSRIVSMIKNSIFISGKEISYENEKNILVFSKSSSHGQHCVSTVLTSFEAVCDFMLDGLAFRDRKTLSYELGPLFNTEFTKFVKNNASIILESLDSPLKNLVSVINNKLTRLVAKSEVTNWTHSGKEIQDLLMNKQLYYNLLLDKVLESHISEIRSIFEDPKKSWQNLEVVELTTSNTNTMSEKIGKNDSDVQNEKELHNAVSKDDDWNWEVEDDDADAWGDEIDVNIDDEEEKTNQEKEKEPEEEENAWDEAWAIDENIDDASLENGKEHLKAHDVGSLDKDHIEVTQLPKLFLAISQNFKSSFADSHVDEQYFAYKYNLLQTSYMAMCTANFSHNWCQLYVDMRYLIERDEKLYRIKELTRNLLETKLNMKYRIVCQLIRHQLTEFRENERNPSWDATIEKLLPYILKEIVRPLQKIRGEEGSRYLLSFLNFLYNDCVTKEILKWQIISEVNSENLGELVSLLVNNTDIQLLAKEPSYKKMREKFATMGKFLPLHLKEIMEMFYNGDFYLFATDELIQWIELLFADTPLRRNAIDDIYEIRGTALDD
Kind of experiment: peptide spot overlay assay: 13-mer δ-COP peptides on cellulose membrane. The class given is binding. The note with it: 13-mer peptides spanning amino acids 191-302 of δ-COP; detection with anti-Dsl1p antibodies. From the text:
To further delineate the Dsl1p binding domain in δ-COP 13-mer peptides spanning amino acids 191-302 of δ-COP were synthesized on a cellulose membrane (overlap in sequence by 10 amino acids; Jerini; Berlin, Germany) and probed with to GST-Dsl1p. Anti-Dsllp antibodies were used to detect bound GST-Dsl1p. […] We cannot exclude that peptides from position 248 to 270 also bind to Dsl1p since anti-Dsl1 antibody alone gave already a weak signal with peptides derived from this region. […] To this resin we applied crude extract of E. coli cells producing a chimeric protein consisting of GST and the δ-COP binding domain (GST-L4, "WxW"; L4 = D-type-polypeptide; SED ID NO 1 ([…]-NIDDEEEKT)). After washing thoroughly, bound proteins were eluted and analyzed by SDS-PAGE followed by Coomassie staining. […]
To analyze the Ds11p binding region within the Ret2 protein overlapping 13-mer peptides (overlap 10 residues each) spanning the region between residue 191 and 302 were directly synthesized on a cellulose membrane (Jerini; Berlin, Germany). […] After 2 h incubation with purified GST-Ds11p in blocking buffer, the membrane was washed three times with Tris/HCl-buffer and bound GST-Ds11p was detected by using α-Dsl1p antibodies and the ECL detection system (AmershamPharmaciaBiotech).

The target in experiment [2] is T2, GST-Dsl1p (S. cerevisiae (yeast), UniProt P53847 1-754).
T2 construct: Made in E. coli and immobilised on glutathione-Sepharose 4B; also called GST-tagged Dsl1p; full length GST-Dsl1p; not shown: glutathione S-transferase (GST) encoded by pGEX-TT (pGEX-2T with modified polylinker); placement and linker residues not
T2 sequence (looked up): T1 sequence (P53847 1-754)
Kind of experiment: peptide spot overlay on cellulose membrane, detected with anti-Dsl1p antibodies.

Turning to “R-type-peptide: peptide representing residues 242 to 254 of δ-COP, RAGHSATGGMKLG”, the “signal of bound GST-Dsl1p” value in experiment [1] is “strongest signal”.

B1: 13-mer peptide representing residues 242 to 254 of δ-COP, synthesized on a cellulose membrane (peptide)
peptide: RAGHSATGGMKLG
notes: A spot on a peptide array of 13-mers that overlap by 10 residues and span aa 191-302; also called R-type-peptide
B1: in experiment [2], the binding result is listed as “binds”.
